Series [1] can be described thus: Interleukin surface binding to nanoP3 (fluorescence of Cy5 label in leftover washes). Format: physicochemical. Particulars: ultra-pure water pH 6.5, room temperature; for maximum binding efficiency of nanoP3 to interleukin in solution: Cy5-tagged interleukin; for loading capacity, further increased loading: at lower binding efficiency. On the procedure:
Carrier free recombinant rat IL-4 and IL-10 (R&D systems, USA) were dissolved in phosphate buffered saline (PBS) at a stock concentration of 100 ng/μl. To establish binding kinetics, each interleukin was tagged with a Lightning-link Cy5 antibody label (Novus Biologicals, USA). For every 1×10^9 nanoP3 (200 nm diameter) in ultrapure water (Thermofisher, USA), either 1.42 μg of IL-4 or 1.32 μg of IL-10 was added. Additional water was added to reach a total reaction volume of 1 ml and left to incubate for a 1 h at room temperature. Binding kinetics were performed on a Clariostar monochromator microplate reader (BMG Labtech, Germany) using the leftover washes following 1 h incubations.
The binding efficiency of nanoP3 to IL-4 in solution was maximum at 99%, corresponding to a loading capacity of 0.5±0.01 μg/10^9 particles. […] The maximum binding efficiency of nanoP3 to IL-10 was 99.9%, representing a total mass loading capacity of 0.5±0.02 μg/10^9 particles. Further loading of IL-10 onto nanoP3 was observed up to 0.80±0.02 μg/10^9 particles corresponding to a binding efficiency of 40%. All experiments were performed in ultra-pure water (pH=6.5) at room temperature. The incubation time was 30 minutes.

A short description of series [2]: Tracking of IL-4 retention in the isolated vessel (Cy5 tag), rat carotid injury model. The format is in vivo. The following applies: for IL-4 retention in the vessel after restoration of blood flow: 2 minutes incubation in isolated carotid. The method, then: A) Procedural workflow of vessel injury: 1. Microintraocular forceps are inserted into ligated/isolated carotid rat segments. 2. Forceps are expanded and rotated 360° to mimic balloon injury overexpansion injury/denudation. 3. Forceps are removed, and through the same incision a small gauge catheter is inserted. 4. NP3+IL-4 solutions are delivered through the catheter and are allowed to incubate in the isolated vessel for 2 minutes. 5. The incision is sutured, and blood flow is restored.
(§1) Study approval was obtained from the Sydney Local Health District Animal Welfare Committee (protocol number 2017/006). Experiments were conducted in accordance with the Australian Code of Practice for the Care and Use of Animals for Scientific Purpose. Rats (Sprague Dawley, male, 7 weeks) were purchased from Laboratory Animal Service (NSW, Australia). Rats were given a single intramuscular injection of ketamine (75 mg/kg) and medetomidine (0.5 mg/kg) to induce anaesthesia. The common carotid artery was isolated and double ligations were spaced roughly 1 cm apart. A small incision at the distal end was made, through which microintraocular forceps (World Precision Instruments, USA) were inserted, expanded to their full width and rotated 360 degrees to injured the entire luminal surface area of the vessel. This was repeated 5 times before withdrawing the forceps, and inserting a 22G catheter into the same incision. Through the catheter, IL-4 or IL-10 bound nanoP3 solutions were injected at a concentration of 2×10^8 nanoP3 in a total volume of roughly 80 μl of RPMI media. The nanoP3 solutions were allowed to incubate for 2 minutes and then withdrawn completely from the vessel. The incision was sutured closed using a 9-0 nylon suture, and both ligations were undone to re-establish blood flow. The isolated vessel segments were then explanted 14 days later for pathological evaluation.

In series [3] the test system is Raw 246.7 mouse macrophage cells. Nature of the series: M2 macrophage polarisation in vitro (SEM, confocal arginase-1 staining). Particulars: 1×10^5 nanoP3/well, 24 hours; for expression of arginase-1 (ARG-1), confocal immunostaining: vs control and NP3 only; for M2 activation of macrophages (SEM spreading and surface roughness): vs untreated and NP3 only. Format: cell-based. The method, then: The inventors sought to investigate the effect of NP3+IL-4 on macrophage polarisation in vitro. Raw 246.7 mouse macrophage cells (ATCC, USA) were cultured at 5×10^3 cells/well in a 96 well plate. IL-4 bound nanoP3 was added into macrophage cultures at a concentration of 1×10^5 nanoP3/well. After 24 hours, macrophages were fixed in 4% paraformaldehyde prior to scanning electron microscopy (SEM) and confocal imaging. Confocal staining was performed using an Actin cytoskeletal stain (Abcam, USA) and an anti-arginase-1 antibody (Abcam, USA).
Raw 246.7 mouse macrophage cells (ATCC, USA) were cultured at 5×10^3 cells/well in a 96 well plate. IL-10 (1.34 μg/10^9 nanoP3) and Sulindac (3.05μg/10^9nanoP3) were bound to nanoP3 as described in Example 4.
NP3+IL-10 or NP3+Sulindac was added into macrophage cultures at a concentration of 1 x 10^5 nanoP3/well. After 24 hours, macrophages were fixed in 4% paraformaldehyde prior to scanning electron microscopy (SEM) and confocal imaging. Confocal staining was performed using an Actin cytoskeletal stain (Abcam, USA) and an anti-arginase-1 antibody (Abcam, USA).

For series [4], the system named is rat carotid model of vessel injury. Nature of the series: Rat carotid injury and nanoP3 delivery model (neointima, endothelium, M2 macrophages). Format: in vivo. The following applies: for repair of the damaged endothelium (immunostaining, von Willebrand factor): 14 days after injury; for vascular occlusion (neointima formation percentage of cross-sectional lumen area): denuded injury roughly 60%; for vessel re-endothelialisation / healing (von Willebrand factor staining): 200 nm NP3, FIG. 8. The method, then:
as §1
After 14 days in vivo, vessel explants were fixed in 4% PFA overnight and subjected to ethanol dehydrations prior to paraffin embedding. Embedded vessel segments were then sectioned in 5 μm thick slices in the longitudinal direction. M2 macrophage and luminal endothelium staining was conducted using anti-CD206 (Abcam, USA) and anti-VonWillebrand Factor (Sigma, USA) antibodies. Fluorescent imaging was conducted by using Alexa-fluor 594 secondary antibodies. Staining of neointima formation was conducted using hematoxylin & eosin (H&E) staining. Normalised hyperplasia was calculated as the total area of hyperplasia divided the area of the original vessel lumen.
Using a rat carotid model of vessel injury, the efficacy of NP3+IL-10, NP3+Sirolimus or NP3+Sulindac to treat cardiovascular pathology was determined in vivo. Carrier -free recombinant rat IL-10 (1.34 μg/10^9 nanoP3; R&D systems, USA), Sirolimus (2.50 μg/10^9 nanoP3; rapamycin, Sigma-Merck, USA), Sulindac (3.05 μg/10^9nanoP3; Sigma-Merck, USA), or a Cy7 fluorescent tag (5.03 μg/10^9 nanoP3; CF750 Antibody Label, Sigma-Merck, USA) were diluted in sterile water and conjugated to 2×10^9 nanoP3.
The rats were subjected to vessel injury as described in Example 3 except that through the catheter, IL-10, Sirolimus or Sulindac bound nanoP3 solutions were injected at a concentration of 2×10^8 nanoP3 (IL-10, 0.268 μg; Sirolimus, 0.5 μg; Sulindac 0.61 μg; Cy7, 1.01 μg), in a total volume of roughly 80 μl of RPMI media.

The test system of series [5] is rabbit model of iliac arterial injury. In words: Rabbit iliac injury and nanoP3 delivery model. Particulars: 200 nm NP3, over seven days. The format is in vivo. On the procedure: Study approval was obtained from the University of Sydney Animal Ethics Committee (AEC) protocol 2019-1653. Experiments were conducted in accordance with the Australian Code of Practice for the Care and Use of Animals for Scientific Purpose. An incision (˜1cm length) was made in the middle of the inguinal skin and the right femoral artery exposed after the blunt dissection of the muscle layers. The artery was ligated on the distal end and above the ligation, a small incision made to allow a 5F sheath (Abbott, TREK Coronary Dilatation Catheter, 3.25 mm) to be inserted. The sheath was held in place with sutures (3-0, silk). A 0.014 inch guide wire was inserted through the sheath, retrograde into the abdominal aorta. A 3.25 mm angioplasty balloon catheter was then inserted over the guide wire and advanced into the aorta. The location of NP3 delivery and the surrounding vasculature was determined by intravenous injection of contrast fluid ISOVUE 370 or OMNIPAQUE (75.5 g/100 ml), 25%-50% (v/v) contrast/saline prior to angiography.
Denudation of the iliac artery was performed by inflating the balloon at the bifurcation of the abdominal aorta to 3.1 mm diameter and withdrawn to the femoral artery slowly, 3 times (1 min per denudation). Through the main incision, the same balloon was re-inserted into the injured iliac to the bifurcation and inflated to 6-8 atm to occlude proximal blood flow. Immediately after blood flow has been occluded, a IL-10 nanoP3 solution (3×10^8 total 2 ml) was delivered through the sheath, inflating the artery, and allowed to incubate for 2 minutes before aspirating remaining solution back through the sheath. The sheath was removed, the femoral artery permanently ligated by 3-0 silk suture, followed by removal of the sheath. The exposed area was closed by 3-0 silk suture with individual stiches and double layer sutures.

This note sets out measurements from patent US20220096655A1, “PLASMA POLYMER NANOPARTICLES CARRYING AGENTS” (THE HEART RESEARCH INSTITUTE LTD, priority 2019, published 2022).

Values joined by “and” are separate entries in the source; they are usually repeats but may differ in a detail not shown here. Equal entries are not always repeated. Bounds are passed on as bounds.

B1: IL-4: carrier free recombinant rat IL-4 (R&D systems), anti-inflammatory cytokine (protein, UniProt P20096 25-147, looked up)
Interleukin-4: CNDSPLREIINTLNQVTEKGTPCTEMFVPDVLTATRNTTENELICRASRVLRKFYFPRDVPPCLKNKSGVLGELRKLCRGVSGLNSLRSCTVNESTLTTLKDFLESLKSILRGKYLQSCTSMS
On to B1, for which, in series [1], the “binding efficiency at further increased loading” value came to 53.1%; the “loading capacity at maximum binding efficiency” value is listed as 0.5±0.01 μg/10^9 particles; the “maximum binding efficiency of nanoP3 to interleukin in solution” value is 99% and 100%; the “loading capacity, further increased loading” value is 1.1±0.02 μg/10^9 particles. Besides, the “IL-4 retention in the vessel after restoration of blood flow” value in series [2] was “immediately washed away”.

B2: NP3+IL-4: recombinant rat IL-4 conjugated to plasma polymer nanoparticles (nanoP3, 200 nm) (conjugate, UniProt P20096 25-147, looked up)
Interleukin-4: B1 Interleukin-4
modifications: conjugated to 200 nm plasma polymer nanoparticles
B2: in series [3], the “expression of arginase-1 (ARG-1), confocal immunostaining” value is “significantly upregulated”; the “M2 activation of macrophages (SEM spreading and surface roughness)” value is “increases spreading (top row) and surface roughness”. Moreover, in series [3] (listed as nanoP3-IL4), the “M2 activation of macrophages (SEM spreading and surface roughness)” value is on record as “causes M2 activation”. In series [2], the “persistence of IL-4 at substantial levels in the vessel” value is no less than 5 days and the “IL-4 retention in the vessel after restoration of blood flow” value is on record as “significantly retained”. For the same molecule, the “repair of the damaged endothelium (immunostaining, von Willebrand factor)” value (“repair of the damaged endothelium” for short) in series [4] is listed as “restore full endothelium integrity”. Further, the “vascular occlusion (neointima formation percentage of cross-sectional lumen area)” value in series [4] (two weeks) is reported as “approximately 35%”.

B3: IL-10: carrier free recombinant rat IL-10 (R&D systems), anti-inflammatory cytokine (protein, UniProt P29456 19-178, looked up)
Interleukin-10: SKGHSIRGDNNCTHFPVSQTHMLRELRAAFSQVKTFFQKKDQLDNILLTDSLLQDFKGYLGCQALSEMIKFYLVEVMPQAENHGPEIKEHLNSLGEKLKTLWIQLRRCHRFLPCENKSKAVEQVKNDFNKLQDKGVYKAMNEFDIFINCIEAYVTLKMKN
For B3, in series [1], the “binding efficiency at further increased loading” value turned out to be 40%; the “loading capacity at maximum binding efficiency” value was 0.5±0.02 μg/10^9 particles; the “maximum binding efficiency of nanoP3 to interleukin in solution” value was 99.9% and 100%; the “loading capacity, further increased loading” value was 0.80±0.02 μg/10^9 particles. Further, in series [4], the “repair of the damaged endothelium” value is reported as “absent”. Moreover, the “effect on vascular occlusion” value in series [4] (two weeks) was “no significant effects”.

B4: NP3+IL-10: recombinant rat IL-10 conjugated to 200 nm plasma polymer nanoparticles (nanoP3) (conjugate, UniProt P29456 19-178, looked up)
Interleukin-10: B3 Interleukin-10
modifications: conjugated to 200 nm plasma polymer nanoparticles
As for B4, in series [3], the “expression of arginase-1 (ARG-1), confocal immunostaining” value is listed as “significantly upregulated”; the “M2 activation of macrophages (SEM spreading and surface roughness)” value was “causes M2 activation”. Moreover, in series [4], the “vessel re-endothelialisation / healing (von Willebrand factor staining)” value is listed as “stimulate healing” and the “repair of the damaged endothelium” value was “restore full endothelium integrity”. Moreover, the “vessel re-endothelialisation / healing (von Willebrand factor staining)” value in series [4] (listed as NP3 delivered IL-10) was “stimulates vessel healing”. For the same molecule, the “vessel inflammation/macrophage polarisation (CD206 co-staining with CD68)” value in series [4] (200 nm NP3, FIG. 9) is recorded as “promoting M2 macrophage polarisation”. For the same molecule, the “neointimal hyperplasia (H&E staining)” value in series [4] (200 nm NP3, compared to freely delivered agents, FIG. 7) was “inhibition of neointimal hyperplasia”. Besides, the “presence of M2 macrophages in treated carotid segments (immunostaining, CD206)” value in series [4] (14 days, compared to denuded, NP3+IL-4 and free IL-10) is “significant increase”. Moreover, in series [4] (two weeks), the “vascular occlusion (neointima formation percentage of cross-sectional lumen area)” value was roughly 20%. Further, in series [5], the “incidence of thrombosis (CD31 staining)” value is given as “significantly reduced”. In series [5] (vs untreated controls), the “neointimal hyperplasia / occlusion (H&E staining)” value (from here on “neointimal hyperplasia / occlusion”) is “reduced hyperplasia” and the “vessel inflammation, infiltration of pro-inflammatory macrophages (CD68 staining)” value is “reduces the infiltration of pro-inflammatory macrophages”. Moreover, the “neointimal hyperplasia / occlusion” value in series [5] (vs untreated controls, listed as IL-10+NP3) was “reduced hyperplasia”. Further, the “neointimal hyperplasia / occlusion” value in series [5] (vs untreated controls, listed as NP3+IL10) is given as “reduced occlusion”.
